To fix the notation:
B1: AB-000317 (antibody, V domains shown)
VH: QMQLVESGGGVVQPGRSLRLSCTASGFTFSTYAMHWVRQSPGQGLQWVAVISYHSTNKYYEDSVRGRFTISRDNSKNTLYLQMNSLRAEDTAVYYCARDGYSSSFFDFWGQGTLVTVSS
VL: DIQMTQSPSTLSASVGDRVAITCRASQSISRWLAWYQQQPGKAPKLLMSGASVLESGVPSRFSGSGSGTEFTLTISSLQPDDFATYYCQHYNSYFVTFGQGTKVEIK
B2: AB-007059 (antibody, V domains shown)
VH: B1 VH with S104T
VL: B1 VL
B3: AB-007065 (antibody, V domains shown)
VH: B1 VH
VL: B1 VL with G50K
B4: AB-007063 (antibody, V domains shown)
VH: B1 VH
VL: B1 VL with S49A
B5: AB-007045 (antibody, V domains shown)
VH: B1 VH with G100A
VL: B1 VL
B6: AB-007070 (antibody, V domains shown)
VH: B1 VH
VL: B1 VL with G50A
B7: AB-007053 (antibody, V domains shown)
VH: B1 VH with N57Q
VL: B1 VL
B8: AB-007030 (antibody, V domains shown)
VH: B1 VH with Q46E, E61A
VL: B1 VL
B9: AB-007062 (antibody, V domains shown)
VH: B1 VH
VL: B1 VL with R31S
B10: AB-007061 (antibody, V domains shown)
VH: B1 VH
VL: B1 VL with S30D
B11: AB-007071 (antibody, V domains shown)
VH: B1 VH
VL: B1 VL with V53S
B12: AB-007029 (antibody, V domains shown)
VH: B1 VH with M2V
VL: B1 VL
B13: AB-007056 (antibody, V domains shown)
VH: B1 VH with S102Q
VL: B1 VL
B14: AB-007068 (antibody, V domains shown)
VH: B1 VH
VL: B1 VL with G50L

Where a chain is given by its changes, count along the chain named. Where “and” joins values, the source holds several entries; their conditions need not be identical. Equal entries are not always repeated.

The target in one assay is (NANP)6 (Plasmodium falciparum). Briefly: BLI, target on sensor.
On to B1, for which the dissociation constant (Kd) is 0.714 nM and 1.38 nM.

As to B2, the Kd is 1.41 nM.

Consider B3, for which the Kd came to 0.729 nM.

Take B4: the dissociation constant (Kd) stood at 1.64 nM.

In the case of B5, the Kd was 0.703 nM.

B6 showed a dissociation constant Kd of 0.834 nM.

Turning to B7, the equilibrium dissociation constant (Kd) is 1.37 nM.

Molecule B8 came in with an equilibrium dissociation constant (Kd) of 0.526 nM.

In the case of B9, the Kd is 0.607 nM.

As for B10, the dissociation constant (Kd) worked out at 0.385 nM.

In turn, B11 came in with an equilibrium dissociation constant (Kd) of 1.66 nM.

The molecule B12 gave a dissociation constant (Kd) of 0.803 nM.

B13 registered a dissociation constant Kd of 0.88 nM.

Consider B14, for which the Kd came out at 1.59 nM.

For another assay, the target named is (NPNA)3 (Plasmodium falciparum). Briefly: BLI, target on sensor. For orientation: Biolayer interferometry detects binding as a change in optical thickness at a sensor tip.
Take B1: the Kd was 0.18 nM and 0.8 nM.

With B2, the Kd came out at 0.478 nM.

B3 yielded a Kd of 2.23 nM.

For B4, the equilibrium dissociation constant (Kd) worked out at 0.691 nM.

Consider B5, for which the equilibrium dissociation constant (Kd) was found to be 0.734 nM.

As for B6, the Kd came out at 0.68 nM.

B7 had a dissociation constant (Kd) of 0.552 nM.

In the case of B8, the Kd came to 0.192 nM.

B9 returned a Kd of 0.00796 nM.

In the case of B10, the Kd came out at 0.00376 nM.

For B11, the Kd is 0.694 nM.

B12 returned a dissociation constant (Kd) of 0.166 nM.

In turn, B13 returned a dissociation constant (Kd) of 0.263 nM.

With B14, the Kd came to 0.703 nM.

Another assay addresses (NVDP)3(NANP)2 (Plasmodium falciparum). As to the kind of experiment: BLI, target on sensor.
As for B1, the Kd was 4.27 nM and 3.73 nM.

B2 registered a Kd of 19.8 nM.

For the molecule B3, the Kd is 9.71 nM.

Turning to B4, the dissociation constant Kd was 9.73 nM.

The molecule B5 yielded a Kd of 43.9 nM.

B6 showed a Kd of 14.4 nM.

The molecule B7 came in with a Kd of 25.8 nM.

Turning to B8, the dissociation constant Kd is 4.03 nM.

As to B9, the Kd worked out at 13.6 nM.

B10 gave a Kd of 5.68 nM.

Molecule B11 had a dissociation constant (Kd) of 11 nM.

Molecule B12 came in with an equilibrium dissociation constant (Kd) of 6.67 nM.

For the molecule B13, the Kd was 24.9 nM.

B14 came in with a Kd of 17.1 nM.

Another assay has as its target NANPNVDP (Plasmodium falciparum). As to the kind of experiment: BLI, target on sensor.
In the case of B1, the Kd was 9.2 nM and 12.7 nM.

With B2, the dissociation constant (Kd) turned out to be 25.8 nM.

For the molecule B3, the Kd amounted to 15.8 nM.

Take B4: the Kd amounted to 13.1 nM.

In the case of B5, the Kd is 28.2 nM.

On to B6, for which the Kd was found to be 19.8 nM.

B7: the Kd amounted to 24.7 nM.

Take B8: the dissociation constant Kd was 7.92 nM.

B9: the Kd amounted to 22.4 nM.

B10: the dissociation constant (Kd) was determined as 12.3 nM.

As to B11, the dissociation constant (Kd) worked out at 12.9 nM.

B12 displayed a Kd of 13.2 nM.

Take B13: the dissociation constant (Kd) turned out to be 29.6 nM.

Take B14: the Kd came to 21.8 nM.

The target of the next assay is … (Plasmodium falciparum). Briefly: BLI, target on sensor.
On to B1, for which the dissociation constant Kd was 2.76 nM and 2.51 nM.

Molecule B2 came in with a Kd of 17.4 nM.

The molecule B3 registered a Kd of 9.73 nM.

As to B4, the equilibrium dissociation constant (Kd) worked out at 7.03 nM.

Molecule B5 returned a Kd of 43.6 nM.

Molecule B6 had a Kd of 15.5 nM.

As for B7, the dissociation constant Kd was 23.5 nM.

As to B8, the dissociation constant (Kd) was determined as 2.84 nM.

Molecule B9 returned a Kd of 14.3 nM.

B10 gave a dissociation constant Kd of 4.11 nM.

For B11, the dissociation constant Kd was 10.4 nM.

In turn, B12 showed an equilibrium dissociation constant (Kd) of 5.62 nM.

Molecule B13 displayed a Kd of 23.6 nM.

B14 registered a Kd of 18.3 nM.

The next assay has as its target (NANP)6 (Plasmodium falciparum). As to the kind of experiment: SPR, antibody on chip. A general note: Surface plasmon resonance follows binding to a sensor surface in real time, without labels.
For the molecule B1, the dissociation constant Kd is 1.75 nM and 0.817 nM.

With B2, the dissociation constant (Kd) is 0.266 nM.

B3 yielded a Kd of 0.238 nM.

Regarding B4, the Kd was 0.194 nM.

As to B5, the dissociation constant (Kd) was found to be 2.35 nM.

In turn, B6 had a Kd of 0.0786 nM.

As for B7, the Kd is 1.42 nM.

B8: the Kd was found to be 0.0537 nM.

Molecule B9 had an equilibrium dissociation constant (Kd) of 0.338 nM.

Turning to B10, the dissociation constant Kd was 0.0657 nM.

With B11, the Kd was 0.433 nM.

Turning to B12, the dissociation constant (Kd) came to 0.177 nM.

B13: the equilibrium dissociation constant (Kd) was determined as 0.104 nM.

With B14, the Kd worked out at 1.56 nM.

In a further assay the target is (NPNA)3 (Plasmodium falciparum). Briefly: SPR, antibody on chip.
On to B1, for which the equilibrium dissociation constant (Kd) was 4.91 nM and 11.2 nM.

The molecule B2 displayed a Kd of 174 nM.

On to B3, for which the dissociation constant Kd was found to be 125 nM.

As for B4, the dissociation constant (Kd) was determined as 14.1 nM.

In turn, B5 displayed an equilibrium dissociation constant (Kd) of 246 nM.

B6 yielded an equilibrium dissociation constant (Kd) of 80.3 nM.

Consider B7, for which the Kd amounted to 112 nM.

Consider B8, for which the equilibrium dissociation constant (Kd) came to 6.88 nM.

In turn, B9 gave a Kd of 10 nM.

In turn, B10 returned an equilibrium dissociation constant (Kd) of 6.69 nM.

The molecule B11 yielded a Kd of 10.2 nM.

In turn, B12 yielded a dissociation constant (Kd) of 11.3 nM.

In turn, B13 showed a Kd of 62 nM.

B14 showed a Kd of 111 nM.

Another assay deals with (NVDP)3(NANP)2 (Plasmodium falciparum). As to the kind of experiment: SPR, antibody on chip.
For B1, the dissociation constant (Kd) was 2590 nM and 2910 nM.

B2: the dissociation constant (Kd) was found to be 17500 nM.

For B3, the Kd was 12600 nM.

The molecule B4 gave a Kd of 3890 nM.

The molecule B6 showed a Kd of 11600 nM.

The molecule B8 came in with an equilibrium dissociation constant (Kd) of 2570 nM.

B9 gave a Kd of 6250 nM.

In turn, B10 yielded an equilibrium dissociation constant (Kd) of 4000 nM.

B11 came in with a Kd of 4870 nM.

For B12, the dissociation constant (Kd) came out at 4790 nM.

As to B14, the Kd turned out to be 32400 nM.

Another assay deals with … (Plasmodium falciparum). As to the kind of experiment: SPR, antibody on chip.
B1: the Kd is 12900 nM and 15800 nM.

B4: the Kd was found to be 12200 nM.

The molecule B6 displayed a Kd of 65300 nM.

On to B8, for which the Kd worked out at 6520 nM.

B9 displayed a Kd of 25000 nM.

B10 registered a Kd of 14600 nM.

B11 showed an equilibrium dissociation constant (Kd) of 23800 nM.

The molecule B12 registered a Kd of 26200 nM.

A word on the Kd: it is the equilibrium constant for the complex coming apart. A high value points to lower affinity.

For the origin of these results see patent publication US20220195023A1.
